{"source": "patent US20180291083A1", "about": "(IMMATICS BIOTECHNOLOGIES, published 2018)", "data": [{"biological_target": "T1, HLA-A*01:01 (human)", "T1 construct": "Peptide-receptive MHC class I monomer made by UV cleavage of a UV-sensitive ligand", "assay": "UV ligand exchange ELISA; exchange yield grade", "excerpt": "(§1) Candidate peptides for T cell based therapies according to the present invention were further tested for their MHC binding capacity (affinity). The individual peptide-MHC complexes were produced by UV-ligand exchange, where a UV-sensitive peptide is cleaved upon UV-irradiation, and exchanged with the peptide of interest as analyzed. Only peptide candidates that can effectively bind and stabilize the peptide-receptive MHC molecules prevent dissociation of the MHC complexes. To determine the yield of the exchange reaction, an ELISA was performed based on the detection of the light chain (β2m) of stabilized MHC complexes. The assay was performed as generally described in Rodenko et al. (Rodenko et al., 2006).\n(§2) 96 well MAXISorp plates (NUNC) were coated over night with 2 ug/ml streptavidin in PBS at room temperature, washed 4× and blocked for 1 h at 37° C. in 2% BSA containing blocking buffer. Refolded HLA-A*02:01/MLA-001 monomers served as standards, covering the range of 15-500 ng/ml. Peptide-MHC monomers of the UV-exchange reaction were diluted 100-fold in blocking buffer. Samples were incubated for 1 h at 37° C., washed four times, incubated with 2 ug/ml HRP conjugated anti-β2m for 1 h at 37° C., washed again and detected with TMB solution that is stopped with […]. Absorption was measured at 450 nm. Candidate peptides that show a high exchange yield (preferably higher than 50%, most preferred higher than 75%) are generally preferred for a generation and production of antibodies or fragments thereof, and/or T cell receptors or fragments thereof, as they show sufficient avidity to the MHC molecules and prevent dissociation of the MHC complexes.", "units": {"peptide exchange yield": "%"}, "values": [{"binder": "GTDVLSTRY", "peptide exchange yield": "50 to 75"}, {"binder": "ALDQNKMHY", "peptide exchange yield": "50 to 75"}, {"binder": "YINPAKLTPY", "peptide exchange yield": "20 to 50"}, {"binder": "LTEGHSGNYY", "peptide exchange yield": "50 to 75"}]}, {"biological_target": "T2, HLA-A*03:01 (human)", "T2 construct": "Peptide-receptive MHC class I monomer made by UV cleavage of a UV-sensitive ligand", "assay": "UV ligand exchange ELISA; exchange yield grade", "excerpt": "as §1, §2", "units": {"peptide exchange yield": "%"}, "values": [{"binder": "HSYSSPSTK", "peptide exchange yield": "50 to 75"}, {"binder": "SVYSETSNMDK", "peptide exchange yield": "50 to 75"}, {"binder": "VVFPFPVNK", "peptide exchange yield": "50 to 75"}, {"binder": "RVFPSPMRI", "peptide exchange yield": "20 to 50"}, {"binder": "SVFEGDSIVLK", "peptide exchange yield": "20 to 50"}, {"binder": "LLWHWDTTQSLK", "peptide exchange yield": "10 to 20"}, {"binder": "GLLEEALFY", "peptide exchange yield": "20 to 50"}, {"binder": "RIYDEILQSK", "peptide exchange yield": "20 to 50"}, {"binder": "ATKSPAKPK", "peptide exchange yield": "50 to 75"}, {"binder": "RIKAPSRNTIQK", "peptide exchange yield": "20 to 50"}, {"binder": "RIKPPGPTAVPK", "peptide exchange yield": "50 to 75"}, {"binder": "TTVPHVFSK", "peptide exchange yield": "20 to 50"}, {"binder": "VILESIFLK", "peptide exchange yield": "20 to 50"}, {"binder": "SVLDLSVHK", "peptide exchange yield": "20 to 50"}, {"binder": "RVYNIYIRR", "peptide exchange yield": "20 to 50"}, {"binder": "KARKSAGAAK", "peptide exchange yield": "50 to 75"}, {"binder": "SISNLVFTY", "peptide exchange yield": "20 to 50"}, {"binder": "KLNPQQAPLY", "peptide exchange yield": "20 to 50"}, {"binder": "KAKAAAKPK", "peptide exchange yield": "20 to 50"}, {"binder": "RMYSQLKTLQK", "peptide exchange yield": "50 to 75"}, {"binder": "SVAHLLSKY", "peptide exchange yield": "20 to 50"}, {"binder": "KVYDPVSEY", "peptide exchange yield": "20 to 50"}, {"binder": "SVSSSTHFTR", "peptide exchange yield": "20 to 50"}, {"binder": "ASTTVLALK", "peptide exchange yield": "20 to 50"}, {"binder": "LLNRHILAH", "peptide exchange yield": "50 to 75"}, {"binder": "KLMETSMGF", "peptide exchange yield": "20 to 50"}, {"binder": "KATGAATPK", "peptide exchange yield": "20 to 50"}, {"binder": "RTYGFVLTF", "peptide exchange yield": "20 to 50"}, {"binder": "KAFNQSSTLTK", "peptide exchange yield": "50 to 75"}, {"binder": "RVLTGVFTK", "peptide exchange yield": "20 to 50"}, {"binder": "ATGAATPKK", "peptide exchange yield": "50 to 75"}, {"binder": "ATYNKQPMYR", "peptide exchange yield": "50 to 75"}, {"binder": "KTSNIVKIK", "peptide exchange yield": "20 to 50"}, {"binder": "KTLPAMLGTGK", "peptide exchange yield": "20 to 50"}, {"binder": "RSKEYIRKK", "peptide exchange yield": "10 to 20"}, {"binder": "KAKKPAGAAK", "peptide exchange yield": "50 to 75"}]}, {"biological_target": "T3, HLA-B*07:02 (human)", "T3 construct": "Peptide-receptive MHC class I monomer made by UV cleavage of a UV-sensitive ligand", "assay": "UV ligand exchange ELISA; exchange yield grade", "excerpt": "as §1, §2", "units": {"peptide exchange yield": "%"}, "values": [{"binder": "SPADHRGYASL", "peptide exchange yield": "20 to 50"}, {"binder": "SPRNLQPQRAAL", "peptide exchange yield": "50 to 75"}, {"binder": "APAPAEKTPV", "peptide exchange yield": "50 to 75"}, {"binder": "LPKVQSIQL", "peptide exchange yield": "20 to 50"}, {"binder": "SPRSWIQVQI", "peptide exchange yield": "50 to 75"}, {"binder": "APRPAGSYL", "peptide exchange yield": "50 to 75"}, {"binder": "SPFSFHHVL", "peptide exchange yield": "20 to 50"}, {"binder": "MPLSTIREV", "peptide exchange yield": "20 to 50"}, {"binder": "SPLSHHSQL", "peptide exchange yield": "20 to 50"}, {"binder": "QPSPARAPAEL", "peptide exchange yield": "20 to 50"}, {"binder": "KPMKSVLVV", "peptide exchange yield": "50 to 75"}, {"binder": "MPSSDTTVTF", "peptide exchange yield": "50 to 75"}, {"binder": "APSKTSLIM", "peptide exchange yield": "20 to 50"}, {"binder": "YPGSDRIML", "peptide exchange yield": "20 to 50"}, {"binder": "SPKESENAL", "peptide exchange yield": "20 to 50"}, {"binder": "SPSLPNITL", "peptide exchange yield": "50 to 75"}, {"binder": "RPSNKAPLL", "peptide exchange yield": "50 to 75"}, {"binder": "LPYDSKHQI", "peptide exchange yield": "20 to 50"}, {"binder": "SPSLPSRTL", "peptide exchange yield": "20 to 50"}, {"binder": "SPWLHAPSL", "peptide exchange yield": "20 to 50"}, {"binder": "SPLGSLARSSL", "peptide exchange yield": "> 75"}, {"binder": "RPFADLLGTAF", "peptide exchange yield": "50 to 75"}, {"binder": "VPNLQTVSV", "peptide exchange yield": "20 to 50"}, {"binder": "RPHIPISKL", "peptide exchange yield": "20 to 50"}, {"binder": "QPRLFTMDL", "peptide exchange yield": "50 to 75"}, {"binder": "SPRVYWLGL", "peptide exchange yield": "50 to 75"}]}]}
